In the supplement of paper PMC9170038:

System: MS2 coat protein
Assay: apparent KD of MS2 coat protein; designed switch direction (-1 OFF switch, 1 ON switch): -1; higher = weaker reporter binding
Procedure, shortened: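 Transcription of designed RNA switches on Illumina chips was done by stalled E. coli RNA polymerase. SNAP-549-labelled MS2 coat protein was then titrated in doubling steps from 0.7 or 1.5 nM to 3 µM, with steps of 0.8–1.5 h at the lowest and 10–20 min at the highest concentration. The per-design median over clusters of curve-fitted normalised fluorescence is reported as apparent KD.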

[1] = Eterna round: R95, input ligand: microRNA oligo, concentration not stated
[2] = input ligand: microRNA oligo, concentration not stated
[3] = Eterna round: R95, input ligand: FMN 200 uM
[4] = Eterna round: R95, input ligand: none

Sequence | apparent KD of MS2 coat protein (input ligand: FMN 200 uM) [nM] | apparent KD of MS2 coat protein (input ligand: none) [nM] | apparent KD of MS2 coat protein [1] [nM] | apparent KD of MS2 coat protein [2] [nM] | apparent KD of MS2 coat protein [3] [nM] | apparent KD of MS2 coat protein [4] [nM]
UUCCAACAUGAGGAUCACCCAUGUCAGGAUAUGCGACCUCCACCACCAACCUCACCUCGCAGAAGGGACACACC [Mod-Cyanosaur/default-title] (Eterna round: R97, puzzle: Exclusion 1) | 24.2 | 23.7 |  |  |  | 
GUUAAGGUAGGAUAUACGAUAAUAUAGGGUAGAUAUAUAACACAUGAGGAUCACCCAUGUAGAAGGACCAAUUG [Mat - Exclusion 2 - Mod of my Tesla design - D53] (puzzle: Exclusion 2) |  |  | 28.5 |  |  | 
UCUCGCAGGCAAGGAUAUCCUACAUUGUUCUGGCCCGGGCAUGUUACAUGAGGAUCACCCAUGUGGGAGAAGGUGCGCCACGGC [Design 33] (Eterna round: R96, puzzle: Exclusion NG 2) | 196 | 100 |  | 175 |  | 
AAACCUGCCCAUGACCGCAAGCUUUUUGCUUGUCUUACCACAUGAGGAUCACCCAUGUGGCAUGGGCUCCUUAUAAA [Xemave] (puzzle: Sensor v3, turn-off variant 2) |  |  | 11.8 |  | 14.2 | 11.7
CGAGUGUAAGGAUAUUCGGCACCAGAGAACGAUCUGGCGUAGAAGAAGGUACAUGAGGAUCACCCAUGUGGUUA [Atonte] (puzzle: Exclusion 4) |  |  | 114 |  |  | 
GCACGACAUGAGGAUCACCCAUGUGAGGAUAUUUAGACGCCUGUGAAUGCAGCCAUUUAGAGAAGGCAUUGGGU [Eternabot (L1) Solution 99] (Eterna round: R97, puzzle: Exclusion 1) | 129 | 43.9 |  |  |  | 
GUAAUUAUAUAGGAUAUCGAAAGUAUAAUUUAACGAGAAGGAUGAACAUGAGGAUCACCCAUGUGGUAUCAUGG [JL-ex6-3.08] (puzzle: Exclusion 6) |  |  | 321 |  | 66.4 | 219
UUUUAACAUGAGGAUCACCCAUGUGAGGAUAUCGAAAUUUAUAUUUAUAUUAAUAAUACGAGAAGGCACAUUUU [JMF 78] (puzzle: Exclusion 1) |  |  | 57 |  |  | 
UUCCGACAUGAGGAUCACCCAUGUGAGGAUAUGUUCGAAAGCUAAGACUGCGACAGGAAUAGAAGGCGCGGGUA [Eternabot (Original) Solution 17] (Eterna round: R97, puzzle: Exclusion 1) | 20.4 | 20.4 |  |  |  | 
CAACCACGUGCAGGAUAUGCGAAGUGAUUCGGUGGUACCACAGCGUAAACAUGAGGAUCACCCAUGUAGAAGGGCAUGAGGGCU [Eternabot solution 16] (Eterna round: R96, puzzle: Exclusion NG 2) | 352 | 123 |  | 119 |  | 
AGGAAGCAAGGAUAUACGAGGAGAAGGUGGAGAGUUAAAGGACAUGAGGAUCACCCAUGUAGAAGGUGCGAGAA [JR_Exclu2_Sub045] (puzzle: Exclusion 2) |  |  | 52.2 |  |  | 
GAAGGACGAGGAUAUGUAUGGGACAGCCGAGGAAAAUCUCAACAUGAGGAUCACCCAUGUAGAAGGCGUGCCCG [Eternabot (Original) Solution 44] (Eterna round: R97, puzzle: Exclusion 2) | 16.4 | 14.1 |  |  |  | 
AAGAAACAUGAGGAUCACCCAUGUGAGGAUAUGGCCCGCCCGGCGUGAGCUGGUUUUGUCAGAAGGCACAAAGG [salish99_ex1_r4_017] (Eterna round: R97, puzzle: Exclusion 1) | 104 | 41.9 |  |  |  | 
CAGCUGAAUGUGAGGAUAUGUCGAGCUUCGGCUCGAUAGAAGGCACAUGAGGAUCACCCAUGUCUCAACAGCUG [BmEx4/2-C1] (Eterna round: R97, puzzle: Brourd's mod of Exclusion 4) | 166 | 35.1 |  |  |  | 
GUAAAGUGAGGAUAUGGUAAUUUAAUUAUUAAUUAAUUAAUCCAGAAGGCACAUGAGGAUCACCCAUGUAAAGG [Mat - Exclusion 4 - D93] (puzzle: Exclusion 4) |  |  | 34.6 |  |  | 
AAUAACAGAGGAUAUACUAUUUUAUGUGUUUGUUAUUUUGAACAUGAGGAUCACCCAUGUAGAAGGCUGAAUAA [JMF 22] (puzzle: Exclusion 2) |  |  | 21.7 |  |  | 
AGCUAAAUAGGAUAUGCCCGGGAUAACAUGAGGAUCACCCAUGUGACCGAUUCAUGUCCUGCAGAAGGGUUUGGGA [Mod of ViennaUCT 6 - Jieux - Exclusion 5] (Eterna round: R97, puzzle: Exclusion 5) | 14.3 | 13.5 |  |  |  | 

Sequence | apparent KD of MS2 coat protein (input ligand: FMN 200 uM) [nM] | apparent KD of MS2 coat protein (input ligand: none) [nM] | apparent KD of MS2 coat protein [1] [nM] | apparent KD of MS2 coat protein [2] [nM] | apparent KD of MS2 coat protein [3] [nM] | apparent KD of MS2 coat protein [4] [nM]
ACAAGCUUUACGAUCCUCAACAUGAGGAUCACCCAUGUGCUCGUAUUGUUUAGUACUAUCACGAAAGUGAUAGUACA [Sensor, turn off variant 1 v.6] (Eterna round: R97, puzzle: Sensor, turn-off variant 1) | 1430 | 943 |  |  |  | 
AGCUAGAUAGGAUAUGCCCGAGAUAACAUGAGGAUCACCCAUGUGACCGAAUCUAAUCUAGCAGAAGGGUUUAGGA [Mod of ViennaUCT 16 - Jieux - Exclusion 5] (Eterna round: R97, puzzle: Exclusion 5) | 15.4 | 15.1 |  |  |  | 
UUACCCUGAGGAUAUCCACCGUGAUACAUGAGGAUCACCCAUGUUAAUGCCUGAGUUCCCGGAGAAGGCAGAUUCC [Megrez] (Eterna round: R97, puzzle: Exclusion 5) | 35.3 | 33.4 |  |  |  | 
UUUAAUUUUUUUUUUUUACAAGCUUUUUGCUCGUCUUAUACAUGAGGAUCACCCAUGUAGGUGAAAAGUAAAUUAUC [JMF 45] (puzzle: Sensor v3, turn-off variant 2) |  |  | 82.1 |  | 15.8 | 20.8
UUACGAUUGCUAGGAUAUCCACGAAUAGCUCCGGGAGAAGGAGCUCUCGUACAUGAGGAUCACCCAUGUCAGGGUGUCCAAUUU [Onraedin] (Eterna round: R96, puzzle: Exclusion NG 1) | 38.1 | 40.7 |  | 21.4 |  | 
UACAUGAGGAUCACCCAUGUUUUGUCGUGUAUGGUAUUUAUCUAGGAUAUCAAUGUAGUUAUUUAUGAGAAGGAGAAUAUUAAU [JMF's solution 41] (Eterna round: R96, puzzle: Exclusion NG 3) | 43 | 50.8 |  | 37.5 |  | 
CCCAGACUAGGAUAUACAAGCCGUGGCGAGGUGGGCCUGGGACAUGAGGAUCACCCAUGUAGAAGGAGUAGGUC [Eternabot (Original) Solution 31] (Eterna round: R97, puzzle: Exclusion 2) | 127 | 136 |  |  |  | 
GCACAGGCAGGAUAUACAUGAGGAUCACCCAUGUGAUCCCUUAAGUACAAAAGUACUAGUAGAAGGGCCUGUGC [Omei Ex3 Model Bachelor's Dilema v47] (Eterna round: R97, puzzle: Exclusion 3) | 646 | 1210 |  |  |  | 
CAUUACUGCAGGCUUCGGGACAUGAGGAUCACCCAUGUUCGUCUUAUUGAUCUAGGUACGCUGACGUACCUAGAUCU [JL-sv1-2.25 Brourd mod] (puzzle: Sensor v3, turn-off variant 1) |  |  | 16.1 |  | 17.3 | 15.6
UCCGGACAUGAGGAUCACCCAUGUGAGGAUAUUGUCGACACGACUGAAAGGAUCACGGCGAGAAGGCGCUUGGA [Eternabot (L2) Solution 48] (Eterna round: R97, puzzle: Exclusion 1) | 25.7 | 21.6 |  |  |  | 
GCGCAAACGCCAAAAGGCGAAACAACAUGAGGAUCACCCAUGUAGGAUAUCGAUUGCUUUGCAGUCGAGAAGGGCAUAAUGCGC [JL ENG3 3.80 Mod 4] (Eterna round: R96, puzzle: Exclusion NG 3) | 15.4 | 16.6 |  | 13 |  | 
CAGAAACAUGAGGAUCACCCAUGUGAGGAUAUGAAAAAGAAAAGAAAAGAAAGAAGAAUCAGAAGGCACAAAGA [salish99-ex1_r3_085] (puzzle: Exclusion 1) |  |  | 23.9 |  | 31.3 | 31.8
UAAAUUGCAAGCAGAUCCUACAUGAGGAUCACCCAUGUGCUCUGAAAUAACGCAGAAUUACUGCGAGCUCGUCUUAU [Winner reversed engineered 26] (Eterna round: R97, puzzle: Sensor, turn-off variant 1) | 80.9 | 94.3 |  |  |  | 
GGGUGUGAAGGAUAUACAUGAGGAUCACCCAUGUGAGAGGAGAAUGUUGAGGAGGUUGGUAGAAGGUCAGGAGG [JR_Exclusion3_Sub010] (Eterna round: R96, puzzle: Exclusion 3) | 202 | 165 |  | 105 |  | 
GUCAGCUCGUCAGGAUAUAUAUUAACAUGAGGAUCACCCAUGUAAGAUCAGCUUCGGCAGUUAAUAUAGAAGGGACGAGCUGAC [ENG2/14-B1] (Eterna round: R96, puzzle: Exclusion NG 2) | 181 | 153 |  | 154 |  | 
AGCUAGUCAGGAUAUUCUGUUAAUUACAUGAGGAUCACCCAUGUGAAUGGACAAGGGUGUGAAGAAGGGACUAGCG [Omei Ex5 A15] (Eterna round: R97, puzzle: Exclusion 5) | 124 | 248 |  |  |  | 
AAGACACAUGAGGAUCACCCAUGUGAGGAUAUUUGAUGCUGAGCGUAAGCUUAGUAUCAGAGAAGGUACAUAGG [Salishxclusion 10 - Jieux - Exclusion 1] (Eterna round: R97, puzzle: Exclusion 1) | 105 | 58.9 |  |  |  | 
